In US20120122115A1, “Bacterial quorum sensing biosensor” (priority 2006, published 2012):

Assay: FRET response of LuxP BAI-2 binding site mutant biosensors to BAI-2
Method: Site-directed mutations were carried out using the QuikChange mutagenesis kit (Stratagene). The perGFP plasmid containing the gene encoding the green fluorescent protein (GFP) is used for creating cyan and yellow variants CFP and YFP, respectively. An L221K mutation is introduced into the gene encoding CFP or YFP to reduce the possible level of intermolecular dimerization. Cloning vector pSP72 (Promega) is used for creating 5′ to 3′ end-to-end gene fusions of PCR fragments containing the genes encoding CFP (5′ KpnI/3′ EagI), V. harveyi LuxP (70 to 1095 bp; 5′ EagI/3′ NotI), and YFP (5′ NotI/3′ PstI), generating plasmid pSP72-CLPY. The CLPY gene fusion is removed using the restriction enzymes KpnI and PstI and subcloned into a pQE-30 bacterial expression vector (Qiagen) containing an N-terminal six-His tag, generating plasmid pQE30-CLPY. LuxP BAI-2 binding site mutants pQE30-M2CLPY (Q77A and S79A) and pQE30-M3CLPY (Q77A, S79A, and W82F) are created using pQE30-CLPY as a template and confirmed by DNA sequence analysis.
The YFP or CFP fluorescence response of wild-type and mutant forms of CLPY (1.0 mL, 0.015 mg/mL) to different ligands is measured 5 minutes after addition of the ligand to the protein at room temperature. No time-dependent changes in the CLPY FRET ratio are observed after incubation for 5 minutes. […]

B1: M3CLPY: CLPY with LuxP BAI-2 binding site mutations Q77A, S79A, and W82F (protein)
chain: MRGSHHHHHHGSACELGTMKGEELFTGVVPILVELDGDVNGHKFSVSGEGEGDATYGKLTLKFICTTGKLPVPWPTLVTTLTWGVQCFSRYPDHMKQHDFFKSAMPEGYVQQRTIFFKDDGNYKTRAEVKFEGDTLVNRIELKGIDFKEDGNILGHKLEYNYISHNVYITADKQKNGIKANFKIRHNIEDGSVQLADHYQQNTPIGDGPVLLPDNHYLSIQSALSKDPNEKRDHMVLKEFVTAAGITHGMDELYTADGVLNGYWGYQEFLDEFPEQRNLTNALSEAVRAQPVPLSKPTQRPIKISVVYPGQAVADYFVRNIASFEKRLYKLNINYQLNQVFTRPNADIKQQSLSLMEALKSKSDYLIFTLDTTRHRKFVEHVLDSTNTKLILQNITTPVREWDKHQPFLYVGFDHAEGSRELATEFGKFFPKHTYYSVLYFSEGYISDVRGDTFIHQVNRDNNFELQSAYYTKATKQSGYDAAKASLAKHPDVDFIYACSTDVALGAVDALAELGREDIMINGWGGGSAELDAIQKGALDITVMRMNDDTGIAMAEAIKWDLEDKPVPTVYSGDFEIVTKADSPERIEALKKRAFRYSDNGGAAAKGEELFTGVVPILVELDGDVNGHKFSVSGEGEGDATYGKLTLYFICTTGKLPVPWPTLVTTLGYGLKCFARYPDHMKQHDFFKSAMPEGYVQERTIFFKDDGNYKTRAEVKFEGDTLVNRIELKGIDFKEDGNILGHKLEYNYNSHNVYIMADKQKNGIKVNFKIRHNIEDGSVQLADHYQQNTPIGDGPVLLPDNHYLSYQSALSKDPNEKRDHMVLKEFVTAAGITHGMDELYK
In the case of B1, the “FRET response to BAI-2 (qualitative)” value (following addition of BAI-2, compared to wild-type CLPY) is reported as “insensitive to BAI-2” and the “FRET response relative to the wild-type biosensor” value (supersaturating BAI-2 (10 μM)) is reported as 18%.
